± gives the standard deviation.
Test: protein stability index of a GFP-peptide fusion (GPS, HEK-293T) (PSI 1-6); higher = more stable
[1] = treatment: DMSO, c terminus: a fixed tail appended
[2] = treatment: MLN4924 1 uM, 8 h, c terminus: a fixed tail appended
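Note: 24-mer peptide tiles fused after GFP, lentivirally expressed, FACS-sorted into six equal bins by GFP/DsRed ratio, decoded by Illumina sequencing, PSI is the read-weighted mean bin number.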

Sequence	protein stability index [1]	protein stability index [2]	protein stability index (treatment: DMSO, c terminus: native)	protein stability index (treatment: MLN4924 1 uM, 8 h, c terminus: native)
LACGSNRFNKLGLDHLSLGEEPVP [NEK8]	3.12 ± 0.14	3.2 ± 0.14		
EWASHTAALTNKHSQELTNEKEKA [SASS6]	5.574 ± 0.002	5.39 ± 0.19		
SFGNCTYNLTILDCLQGIRKGLQH [CDC14A]	2.38 ± 0.36	2.33 ± 0.44		
EAIKNEMNVMLKSSPVDLVTATDQ [IMPA1]	4.21 ± 0.11	4.67 ± 0.17		
QEIATYRRLLEGEDAHLTQYKKEP [KRT17]	4.68 ± 0.19	4.82 ± 0.18		
SLIFSLKNEVGGLIKALKIFQEKH [TPH1]	2.07 ± 0.23	2.75 ± 0.82		
DQLNDGQDFAKDLLKTLYNSIKNE [PSD2]	3.56 ± 0.21	3.71 ± 0.32		
ARRESGGRPIKPPKKDLEDGEVPQ [BRD3]	5.58 ± 0.21	5.38 ± 0.32		
TVAGIVGSSYGILQLFSSTLVGCW [MFSD9]	2.96 ± 0.83	2.89 ± 0.32		
AKARDLYKGRQLQGCPGAKKHEFL [SMOC2]	3.03 ± 0.3	3.2 ± 0.34		
EIPENYNSAMPFKILYDDGKMVEE [PTPRD]	4.55 ± 0.2	4.79 ± 0.071		
ANSDRASIGRRRTELRRSGSSRSP [PLEKHN1]	4.79 ± 0.3	5.2 ± 0.21		
PPPPPLPDPTPPEPEEEILGSDDE [SRPK2]	5.51 ± 0.23	5.63 ± 0.19		
FVIGHLKGAPASWWNHMHFQHHAK [FADS1]	2.65 ± 0.89	2.24 ± 0.47		
ETQLKACASFIRTRLLLQFTQPQQ [C8orf76]	2.93 ± 0.65	2.86 ± 0.88		
HAPGVPKILVGNRLHLAFKRQVPT [RAB40B]	2.49 ± 0.5	2.6 ± 0.35		
HTDMTNKQNKTPLDKSTTGVSEIL [FEM1B]	4.85 ± 0.49	5.05 ± 0.25		
EERLERCMSIVTSMTAGVSEREAN [INTS3]	4.84 ± 0.35	4.78 ± 0.29		
ELFYRVNYIGTKNVIETCKEAGVQ [NSDHL]	2.14 ± 0.21	2.08 ± 0.54		
KREAGNLTKATAPDQKSSGGRDS [SSNA1]			5.07 ± 0.23	5.25 ± 0.17
TFVNVYIASFIRGPNPSKLIQQFL [CDS2]	2.4 ± 0.65	2.73 ± 0.6		
SPPDQPAVPHPPPSTPIKLEEGDG [ADD1]	5.56 ± 0.2	5.62 ± 0.18		
DAGPMVVHCSAGVGRTGCFIVIDA [PTPRD]	2.73 ± 1.3	2.7 ± 0.76		

Sequence	protein stability index [1]	protein stability index [2]	protein stability index (treatment: DMSO, c terminus: native)	protein stability index (treatment: MLN4924 1 uM, 8 h, c terminus: native)
KMQQSKNQVVSSTNGELNTDDPTA [CSNK1G3]	5.37 ± 0.21	5.34 ± 0.13		
NHWVPACHSFNRAIHKKAKGTEAE [FBXO34]	4 ± 0.17	4.1 ± 0.12		
LALFSHLVNHVNIRLQAELEEGEN [SMG5]	2.5 ± 0.21	2.7 ± 0.44		
AAAGAVGLERRDWSPSPPATPEQG [SPDEF]	5.09 ± 0.26	5.18 ± 0.17		
QYYRWLNYGGVIKNYFQHREFSFT [PRIM1]	2.34 ± 0.64	1.98 ± 0.47		
SNHSWNTQTWCTQSWNNQAWNSPF [NANOGP8]	2.24 ± 0.23	2.19 ± 0.18		
KNGEWGTVCDDKWDLVSASVVCRE [LOXL2]	3.85 ± 0.63	3.8 ± 0.73		
APLVQPSKNDNGKPDSVGLPPCAV [PCMTD1]	5.09 ± 0.15	5.07 ± 0.22		
MEDSFLQSFGRLSLQPQQQQQRQR [N4BP2L1]	4.69 ± 0.3	4.63 ± 0.25		
FPKNRVLEGVIDRYQQSKAAALKC [TRIM9]	2.78 ± 0.14	3.2 ± 0.19		
AGRNVLRWDLSPEQIKTRTEELIV [NLN]	2.52 ± 0.34	3.23 ± 0.47		
EVDVQEAGAGWWVGAAYASLRRRG [TRIM14]	3.4 ± 0.28	3.38 ± 0.4		
RSVIEVPAVPEEILKRLLKEQHLW [DLC1]	2.48 ± 0.36	2.69 ± 0.37		
ENKQVVIIHHMRLQAKALQLIVTA [INTS4]	3.01 ± 0.56	3.03 ± 0.44		
GVVVCEADTGRIHRFVEKPQVFVS [GMPPB]	2.25 ± 0.19	2.28 ± 0.3		
KVPREKDEPGKGGFWRIDPQYAER [FOXJ1]	4.12 ± 0.34	4.2 ± 0.21		
TFHDSKHNIVHVHFDATRGWLLTS [WDFY2]	2.44 ± 0.31	2.17 ± 0.13		
PAADPPRYTFAPSVSLNKTARPFG [PDLIM7]	3.54 ± 0.27	3.64 ± 0.35		
DEEDCPNPEEYNLDEPNAESDYTY [SRPK2]	5.57 ± 0.37	5.66 ± 0.15		
PLLKMDLNSEQAEQLERINDALSC [FAM98B]	4.29 ± 0.24	4.36 ± 0.1		
SSSYSPETFRQQFRQFGYQDSPGP [ZNF396]	3.48 ± 0.23	3.24 ± 0.21		
SMKGSCGIGGGIGGGSSRISSVLA [KRT16]	2.54 ± 0.42	2.64 ± 0.33		
PMVLMIIVMCVQIKCFHEIITIGY [CDS2]	3.01 ± 0.43	3.14 ± 0.66		

Sequence	protein stability index [1]	protein stability index [2]	protein stability index (treatment: DMSO, c terminus: native)	protein stability index (treatment: MLN4924 1 uM, 8 h, c terminus: native)
GLDFHRFYFENLWSRNSKPVHTTI [CAMK2A]	2.28 ± 0.58	2.11 ± 0.32		
AASLAGCLGALCENTCLLRGFSGG [TSPAN10]	2.22 ± 0.57	2.37 ± 0.58		
HVEVARLLLENGAGINTHSNEFKE [ANKRD17]	3.69 ± 0.39	3.39 ± 0.22		
MEVAMVSAESSGCNSHMPYGYAAQ [KCNA4]	2.95 ± 0.15	3.32 ± 0.5		
AGTPGYLSPEVLRKDPYGKPVDMW [CAMK2D]	3.34 ± 0.5	3.25 ± 0.42		
FDVHPNELTNGVINAAFMLLFKDL [SNAP91]	2.84 ± 0.81	2.24 ± 0.41		
FGTQVENFSTFIKCIFTQFRIILG [PKD2L1]	2.35 ± 0.058	2.24 ± 0.32		
RGSKMFKLRQMRVEKFIYENHPDV [MYOZ1]	2.9 ± 0.37	2.52 ± 0.12		
FLELAVGQRIRRGSIGVWHYICPR [SLC6A17]	2.99 ± 0.97	2.18 ± 0.5		
LIETYTGLMSFIGNRNKLGYSLAR [TPRG1]	2.31 ± 0.31	2.21 ± 0.16		
SQEESEEGEEDATSEVDKRRTRPR [CHGB]	5.57 ± 0.33	5.59 ± 0.2		
VSCLGLGTWVTFGGQITDEMAEQL [KCNAB2]	2.32 ± 0.27	2.51 ± 0.3		
DGAEIAEKFVFFIGSKNGGKTTII [DYNC2LI1]	2.26 ± 0.78	2.05 ± 0.54		
EVILGDIWKLNLQTFQWVKLPATM [KLHDC10]	2.51 ± 0.51	2.21 ± 0.3		
SHPRVQSGCDKEALLTGGGSENRN [RNF180]	4.77 ± 0.31	4.65 ± 0.24		
YLTGTINGDPESVASLHWDGGALL [ADAMTS4]	2.88 ± 0.59	3.1 ± 0.32		
GTDEEEEEFIEEEDQEEEESTEGK [TRIM63]	5.71 ± 0.17	5.56 ± 0.24		
IFPRLSFKDKSTYIESSTKVYDDM [CLPTM1]	3.03 ± 0.23	3.15 ± 0.25		
LKMSYSRGLIPVKRGPSSRSGGPP [RBMY1A1]	2.95 ± 0.25	3.16 ± 0.37		
YWTKYYDFKNPIIEKYLRRQLTKP [OAS1]	1.94 ± 0.33	2.11 ± 0.19		
ATGFHFNAMTCEGCKGFFRRSMKR [VDR]	2.63 ± 0.18	2.9 ± 0.21		
EHPNLVRDHVETELLKEAELIRNI [TEKT4]	4.6 ± 0.12	4.56 ± 0.21		
ADSFESSDSLLQSWNSQSSLLDVQ [ETS2]	4.38 ± 0.12	4.56 ± 0.12		

Sequence	protein stability index [1]	protein stability index [2]	protein stability index (treatment: DMSO, c terminus: native)	protein stability index (treatment: MLN4924 1 uM, 8 h, c terminus: native)
HTGLKPYECGVCAKKFMWRDSFMR [ZBTB22]	2.65 ± 0.52	2.44 ± 0.6		
VAETECRYALQLQQIQGLISSIEA [KRT13]	2.72 ± 0.15	2.63 ± 0.2		
EVAEQLELERIGPQHQAGSDSLLT [CNOT7]	4.9 ± 0.14	4.85 ± 0.15		
HVKEQLPCAGLNCQALDANLDANL [TLE6]	4.42 ± 0.19	4.64 ± 0.24		
HRRIHTGEKPYECQDCGRAFNQNS [ZNF8]	3.75 ± 0.53	4.1 ± 0.27		
DRDGHIKLTDFGFAKKLVDRTWTL [PRKX]	2.1 ± 0.35	2.35 ± 0.42		
LENAEVLELTVRRVQGVLRGRARE [HES6]	3.81 ± 0.33	3.88 ± 0.19		
YESGYAFLPDLLIFQMVIICLMCV [SMG5]	3.23 ± 0.32	3.16 ± 0.57		
VVQEPPGRASRFLQSISWDPEDFE [TLE6]	4.24 ± 0.33	4.65 ± 0.45		
PNALIASLALGDLIYVVIDLPINV [EDNRA]	3.12 ± 0.42	3.03 ± 0.35		
ESACSSDSLDEARSSGSEGTPADT [PWWP2B]	5.7 ± 0.11	5.5 ± 0.21		
LAMGTVSLGQLPLPPIPHVFSAGT [PLAGL1]	2.24 ± 0.26	2.4 ± 0.34		
GLAGLLPASYTAPIMSGQGLAGFF [SLC29A1]	2.06 ± 0.25	2.1 ± 0.086		
PPRREPLPSRRDVYLSPRDDGYST [RBMX]	4.09 ± 0.16	4.23 ± 0.29		
SLSNAVANTMEHLSLLDNNIPGNS [FBXO33]	3.64 ± 0.092	3.94 ± 0.28		
YKREILERVDGRRLVYKFGKNSSG [ELF3]	3.1 ± 0.22	3.21 ± 0.44		
SISKLSPFSEFFKLRFNRKKKGMY [PWWP2B]	2.06 ± 0.25	2.31 ± 0.19		
DDDDEEEEVSEVESFILDQDDLEN [ANKRD17]	5.765 ± 0.056	5.68 ± 0.13		
SNVSSSGSINLLESPQLATLAEDV [MAP2]	5.03 ± 0.22	5.17 ± 0.24		
EAVARHMLIFSLALEEPEKMGLQE [DNAAF3]	2.47 ± 0.55	2.28 ± 0.27		

Reference: the supplement of paper PMC10567573
